# B1: c7490 (antibody, V domains shown)
# VH: QVRLIQSGTLVARPGSSVKVSCQAPGDILANDAVAWVRQAPGQSLEFLGGLPSNFAVGVRAPKFEDRLSIKVDRATKTVHMELRDLTFDDTAIYYCVTCPQRTSVVMSFYFQHWGQGSLVAVSS
# VL: DIQMTQSPASVSASVGDRVTISCRASEEISGRLAWYQQRPGQGPKLLISHTSTLQSGVPSRFTGSGSGTDFTLTISSLQPEDSATYYCQQAQYFPPTFGQGTRLDLK
# B2: c8537 (antibody, V domains shown)
# VH: QVHLVESGGGVVQPGKSLRLSCTSSGFTFSNYGFHWVRQAPGKGLEWVSFISNDGSNHFYTQSLRGRFTISRDNSKGTLYLEMNSLRSEDTAIYYCARDLYSRYRGYYDDLTGENHGNFDYWGLGTLVTVSA
# VL: NFLLSQSLSVSESPGKTVTISCTRSSGNIASNSVQWYQLRPGSSPTTLIYKNRQRPSGISDRFSGSVDTSSNSASLIISGLKTDDEADYYCQSFDNVNQEWVFGGGTKVTVL
# B3: c13230 (antibody, V domains shown)
# VH: QVQLVESGGGVVQPGKSLKLSCATSGFNFSTFGIHWVRQAPGKGLEWLTVISYDGSEKFYGESVKGRFTISRDTSKKTVFLQIKSLKTEDTAVYYCAKDRAENRVSTSPLGMYYYFGMDVWGQGTTVIVSS
# VL: EIMMTQSPATLSASPGEGVTLSCRASQSVSNDFAWYQQTPGQSPKLLFYDAYTRATGVPARFSVNGSGTDFTLTINSLQSEDFASYYCLQYHKWPPYSFGQGTKLGIK
# B4: c7565 (antibody, V domains shown)
# VH: QVRLEERGPGLVKPSETLSLVCGVSGYTMSGLWSTTYDWNWIRQSAGGRPEWIGRIYVGGPAQYNPAFKDRVAFSIDLSKNELSLTLTSVTAADSATYFCARGGDTFHPRYWYTMNIWGSGTKVIVSS
# VL: DIQLTQSPSTVSASVGDRITMSCRANKSLDVWVAWFRRRPGKAPEHLIYRRDYVWGGLPSRFSGSGSGTEFTLTISSLQAGDFGTYYCHQYKDQPWTFGQGTRVDLK
# B5: c13160 (antibody, V domains shown)
# VH: QLHLQESGPGLVKPSETLFLTCTVSGGSMSSSSYYWVWIRQPPRGRDWSRIGSIYYTGSTLTTTHPWRVESLLSVDTSKNQFSLKMNSVTAADTARYYCASSGLYAFWGQGILVPVSS
# VL: DAVVTQSPLVLPVTLGQPASISCRSNQSLLFGEGNTYLNWFQQRPGQSPRRLIHNISKRDSGVPDRFSGSGSGTDFTLEISRVEAEDVGVYYCMQGIHSPPTWTFGQGTKVEIK
# B6: c11031 (antibody, V domains shown)
# V domain 1: EVRLDQSGAEMRKTGTSVRLSCTISGHTTSDFFIHWVKQAPQRGPQWMGLINVEDENVIFAEGFQGRISIGADTSRTTVFLDLTHLTVEDMALYFCTTHTLEKDTGDYVAAFDSWGHGTFLSVSS
# V domain 2: QSVLTQPPSVSAVPGQKVIISCSGRTSNIGTNFVSWYQQFPGAAPKLLIYDTSHRPSGISDRFSASKSDTSATLAITALQPGDEAEYYCGAWDSGLNPAVFVFGSGTRVFVL
# B7: c10868 (antibody, V domains shown)
# V domain 1: EVRLDQSGAEMGKTGTSVRLSCTVSGHTTSDFFIHWVKQAPQRGPQWMGLINVEDENVIFAEGFQGRISIGADTSKTTVFLDLTHLTFEDMALYFCTTHTLEKDTGDYVSAFDSWGQGTFLSVSS
# V domain 2: QSVLTQPPSVSAVPGQKVIISCSGRTSNIGTNFVSWYQQFPGAAPKLLIYDTFHRPSGISDRFSASKSDTSATLAITALQPGDEAEYYCGAWDSGLNPAVFVFGSGTRVFVL
# B8: c10927 (antibody, V domains shown)
# V domain 1: EVRLDQSGTEMRKPGTRVRLSCKVSGHTTSDFFVHWVQQAPQRGPQWMGLINVEDENVIYADIFQGRISIVADTSKKTVFLDLTDLTFEETAIYFCATHTLQKDTGDYVAAFDSWGQGTLLYVSS
# V domain 2: QSVLTQPPSVSAVPGQKVIISCSGRTSNIGTNFVSWYQQFPGAAPKLLIYDNFNRPSGISDRFSASKSDTSATLAITALQAGDEAEYYCGAWDSGLNPAVFVFGSGTRVFVL
# B9: c10920 (antibody, V domains shown)
# V domain 1: EVRLDQSGAEMRKPGTSVRLSCTVSGHRTNDFFIHWVKQDPQRGPLWMGLINVEDENAIYAQEFQGRISIVADSSKTTVFLDLSHLKFEDTALYLCTTHTLEKETGDYVAAFDSWGQGTFLSVSS
# V domain 2: QSVLTQPPSVSAVPGQKVIISCSGRTSNIGTNFVSWYQQFPGAAPKLLIYDTFHRPSGISDRFSASKSDTSATLAITALQPGDEAEYYCGSWDSGLNPAVFVFGSGTRVFVL
# B10: c4302 (antibody, V domains shown)
# VH: QVLLEQSGGEMKKPGASLKVSCQASGYRFTNYGMSWVRQARGQGLEWMGWISAYNGKTIYAQRFQGRVTLTTDTSTRTAYLELRSLTSDDTAVYFCTRSQTYYFDSSDFYDGKYFDYWGQGTLVTVSS
# VL: AIQLTQSPSSLSASVGDRVTLTCRASQGISNALAWYQQKPGESPKLLIHAASSLESGVPSRFSGSGSGTDFTLTISGLQAEDFATYYCQQFNSFPLTFGPGTRLEIK
# B11: c22674 (antibody, V domains shown)
# VH: QVQLVQSGPEVKKPGTSVKVSCKASGYTFSNYAICWVRQAPGQGLEWVGATSAYNDETSYAQKFQGRVTVTRDSSTSTAYLELRSLRSEDSAVYYCARGGYYESSGSDASDYYAMDVWGQGTTVTVSS
# VL: SYELTQPPSVSVSLGQMARITCSGDALSKKYVYWYQQKPGQVPVLVMYQDTERPSGIPERFSGSTSGTIVTLIIGGVQAEDEADYFCLSADDSGTYVVFGGGTKLTVL
# B12: c6486 (antibody, V domains shown)
# VH: QPQMIQSGIEVKQPGAAVKVRCKPSGYWFIACGISWVRQAPGRGLEWLGWVYPYNGKVNHAQKFRGRVTLTADRSTETAYMELKSLTSDDTAIYYCARDSEQYDAAMPNYFTQYGMDVWGQGTTVIVSS
# VL: EIVLTQSPGTLSLSPGETAALSCRSSQAFTDKGLAWYKQRPGQPPSLFVYGVSKRAAGVPDRVTGSGSGTEYTLTIGRLEPEDSGLYFCQQYHDPARTFGQGTKLEIK
# B13: c5250 (antibody, V domains shown)
# VH: QVRLEQWGPGLLKPSETLSLTCAVHGESFDDYSWTWIRHTPSLGLQWIGEIRPFGEIVHKSSLSGRLSFSRDTSKRQVYLKLASVTAADAGVYFCARGPVIYQLPHFYYRGYNVWGQGTTVTVSA
# VL: DLVVTQSPRSLPVTPGESATIFCRSSQSLRHDNGMHYLDWYLQKPGQSPQLLIYLTSNRASGVSDRFSGSGSGTEFTLKISRVEADDVGIYYCMQAIQDPRVFGQGTRLEIK
# B14: c5478 (antibody, V domains shown)
# VH: QVRLQQWGPGLLKPSDTLSLTCAVHGESFHDYSWTWIRQTPSLGLQWIGEIRPFGEIVHKSSLSGRLSFSRDTSKRQVSLRLTSVTAADAGVYFCARGPVIYHLPDFYYRGYNVWGQGTTVTVSA
# VL: DVVVTQSPRSLRVTPGESATIFCRSSQSLRHANGMHYLDWYLQKPGQSPQLLIYLTSNRASGVPDRFSGSGSGTEFTLKISRVEADDVGMYYCMQAIQDPRVFGQGTRLEIK
# B15: c5296 (antibody, V domains shown)
# VH: QVHLQESAPTLVKTSETLSLTCTVSGGQFYPYFYSWIRQSPGGKLQWIGRKYSTTGSMRTNPSLHTRVGMPLDHSRSQIGLTLSSITAADTGIYYCVRDIMRDFDSVDGSGGVYGGVDVWGRGTTVTVSS
# VL: QFLLTQPHSVSGSPGKTITISCTRSDGTFARNSVRWYLQRPGEGPTTVFFDGNRRASGIPDRFSASIAVSSASASLTISGLTPEDEADYYCESSDGGHHVVFGGGTKVTVL
# B16: c10859 (antibody, V domains shown)
# VH: AGHLVESGGKLIRPGGSLSLSCVASGFTFRNAYLTWVRHIPGKGLEWVAHMKSHADGSHTDYSASVQGRCAISRDDSASTLYLHISNLRLDDTGVYYCVHLSTPDEWGHGTPVIVSS
# VL: DVVLTQYPVTLSGSQGDTVALSCRASESLTSHLAWYQQRDGQRPRLLIYDTSHRPPATPPRFSASGSGTDFTLIITSLEPEDSAVYFCQQRDFWPFSFGQGTKLDIT
# B17: c9370 (antibody, V domains shown)
# VH: EVQLVESGGGVVQPGGSLRLSCAASGFTFYSHTMIWVRQAPGKGPQYISHISSTGSNKDYSDSVKGRFTVSRDNDKNSLYLQMDSLRVEDTAIYYCARRSCSLTDCFVRSFSYDMDVWGQGTAVTVSS
# VL: QSALTQPASMSGSPGQSISISCTGTTSDIGGYDSVCWYRQHPGEAPTLLIYDVSNRPSGVSGRFSGSKSANTASLTISGLQAEDEADYYCSSYSTGSSLVVFGGGTKLTVI
# B18: c9603 (antibody, V domains shown)
# VH: EVHLLQSAAEVKKPGSTVKVSCKVSGYTFTDYFLHWIQQTPERGLLWMGFVDPDSGVTVYAENFQGRITMTADTSSDTVYLEISSLTSEDAAVYYCATGSHSYPDTDGNPVYVMAFQYWGQGTLVSVSS
# VL: DIVMTQSPDSLGVSLGETATVKCKSSQSILYSSDNKNYLAWYQQKPGQPPKLLIYWASTRESGVPDRFSGSGSETDFTLTINNVQAEDVAVYYCQQYSESPPTFGGGTKVDFK
# B19: c9369 (antibody, V domains shown)
# VH: QVQLVQSGAEVKKPGSSVKVSCKASGGSFSDFGISWVRQAPGQGLEWMGGIIPGFETANYGQDFQGRVTMTADESTGTAYMEVRRLRSEDTAVYYCATTGQQNDYYSSGASYKLNYYFGLDVWGQGTAVSVSS
# VL: QSVLTQPPSSSGTPGQRVTISCSGSSSNIGSNTVNWYQQLPGTAPKVVISANHQRPSGVPDRFSASKSGASASLAISGLQSEDEADYYCAAWDDSRNAWVFGGGTKLTVL
# B20: c9416 (antibody, V domains shown)
# VH: QVQLVQSGAEVRKPGSSVKVSCKASGGSFSDFGISWVRQAPGQGLEWMGGIIPGFETANYGQDFQGRVTMTADESTGTAYMELRRLRSEDTAVYYCATTGQQNDYYSSGLSYKLNYYLGLDVWGQGTAVSVSS
# VL: QSVLTQPPSSSGTPGQRVTISCSGSSSNIGSNSVNWYQQLPGAAPKVVISANHQRPSGVPDRFSASKSGASASLAISGLQSEDEADYYCAAWDDSRNAWVFGGGTKLTVL
# B21: c5333 (antibody, V domains shown)
# VH: EVQLLESGGGLVKPGGSLRLSCEASGYTFDSYGMSWVRQVPGQGLEWVSAINPNGRGTDYADSVKGRFTISRDNSRNILYLNMKNLRADDSAIYYCAKEWQLPFYPSLGPKFDFWGLGTRVTVSS
# VL: YIALTQSPLSLAVTPGEPASISCKSSQSLLHSNGFHFLDWYLQKPGKSPQLLIFLGFRRASGVPDRFSASGSGTDFILQISRVEAEDVGVYFCMQGLQTPLTFGGGTKLEIK
# Target: HIV-1 NL4-3 Env on infected cells (HIV-1 group M subtype B, NL4-3 (pNL4-3 …, strain))
row,Binder,binding result
1,B1,binds
2,B2,binds
3,B3,binds
4,B4,binds
5,B5,binds
6,B6,binds
7,B7,binds
8,B8,binds
9,B9,binds
10,B10,binds
11,B11,binds
12,B12,binds
13,B13,binds
14,B14,binds
15,B15,binds
16,B16,binds
17,B17,binds
18,B18,binds
19,B19,binds
20,B20,binds
21,B21,binds
